Where no end group is shown, it is not given here. The star is where a group is joined. Biotin = O=C1N[C@H]2[C@H](CS[C@H]2CCCCC(=O)*)N1; Cam = NC(=O)C*
Target: Recombinant SARS-CoV-2 spike RBD protein (SARS-CoV-2, UniProt P0DTC2)
Test: SPR

Row | Binder | Kd [µM]
1 | Biotin-SC(Cam)FDFLNWASCDGGGS [biotinylated peptide 6 (second synthesis)] | ~19
2 | Biotin-SCFDFLNWASCDGGGS (cysteine pairing not given here) [biotinylated peptide 1 (second synthesis)] | 5.8

Reference: publication PMC8751651 (ACS Omega, 2021)
